Biological target: carcinoembryonic antigen (CEA) (UniProt P06731 35-685)
Assay: sandwich FLISA (antibody capture, aptamer nanoparticle probe); CEA on anti-CEA antibody plate; linear 0.01-20 ng/mL, LOD 7.6 pg/mL (assay values, not affinity); CEA capture 37 C 1 h, aptamer probe room temperature 1 h; washes in PBS 10 mM pH 7.4; probe blocked with 1% BSA; read-out with 4 mM OPD in 10 mM HAc-NaAc pH 5.5, 3 h, 565 nm
Details: protein: commercial

carcinoembryonic antigen (CEA), sequence (P06731 35-685): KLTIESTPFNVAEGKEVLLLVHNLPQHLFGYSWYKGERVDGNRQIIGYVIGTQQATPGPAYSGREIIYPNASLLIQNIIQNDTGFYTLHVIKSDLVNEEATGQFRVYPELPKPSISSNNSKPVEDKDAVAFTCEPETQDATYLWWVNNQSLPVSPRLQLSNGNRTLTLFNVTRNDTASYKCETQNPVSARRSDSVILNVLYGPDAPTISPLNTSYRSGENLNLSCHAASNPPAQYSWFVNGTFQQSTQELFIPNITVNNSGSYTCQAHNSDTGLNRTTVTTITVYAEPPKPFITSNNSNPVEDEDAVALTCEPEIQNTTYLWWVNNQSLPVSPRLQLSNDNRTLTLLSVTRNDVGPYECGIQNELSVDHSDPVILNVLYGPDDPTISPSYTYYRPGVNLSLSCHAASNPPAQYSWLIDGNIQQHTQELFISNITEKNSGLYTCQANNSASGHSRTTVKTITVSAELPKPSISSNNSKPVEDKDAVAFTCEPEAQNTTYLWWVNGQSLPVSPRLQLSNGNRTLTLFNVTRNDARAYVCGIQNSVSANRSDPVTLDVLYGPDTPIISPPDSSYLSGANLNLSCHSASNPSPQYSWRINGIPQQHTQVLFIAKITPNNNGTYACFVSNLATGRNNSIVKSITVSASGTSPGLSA

TTTTATACCAGCTTATTCAATT (ssDNA, 5'-NH2; coupled by glutaraldehyde to CP/ZIF-8/PDA nanoparticles) [CEA aptamer]
binding result: binds

— publication PMC9599728, “Polydopamine-Functionalized Copper Peroxide/ZIF-8 Nanoparticle-Based Fluorescence-Linked Immunosorbent Assay for the Sensitive Determination of Carcinoembryonic Antigen by Self-Supplied H2O2 Generatio”
